The text below walks through data of patent US8029979B2, “Method for determining the substrate specificity of an enzyme” (JPT Peptide Technologies GmbH, priority 2001, dated 2011).

In assay [1] the target is T1, protein kinase A (Bos taurus, UniProt P00517).
T1 construct: purchased Sigma P26452 as printed
The assay is described as follows: Time-dependent incubation of various modified surfaces with protein kinase A (FIG. 3, Example 31). In kind it is biochemical. The settings on record: protein kinase A 2 U/mL, incubated for the given time at 25° C. How it is done:
(§1) FIG. 3. The peptide Leu-Arg-Arg-Ala-Ser-Leu-Gly-NH2, modified at the N-terminus with the dipeptide cysteinyl-β-alanine, was coupled to maleinimido-functionalised surfaces by a Michael addition (maleinimido-functionalised glass surface, Sigma, Silane-Prep™, S4651; as well as maleinimidobutyryl-β-alanine-functionalised, modified polypropylene membranes). The modified glass surfaces were first pre-incubated for 10 minutes using 20 mL of 100 μM ATP solution in 50 mM of sodium phosphate buffer pH 7.5. […] (Example 31). The phosphorylation of the corresponding peptides was detected using a FUJIFILM PhosphorImager. The signal intensity of the respective spot is given below the figures. […] FIG. 4. […] After incubation for 30 min at 25° C. the phosphorylation of the corresponding peptides was detected using a FUJIFILM PhosphorImager. […] After incubation for 30 min at 25° C. the phosphorylation of the corresponding peptides was detected using a FUJIFILM PhosphorImager. […]
After drying the glass surface the quantity of radioactive phosphate incorporated in the glass-surface-bound peptides was determined using a PhosphorImager system (FLA-3000, FUJIFILM) (see FIG. 3).

In assay [2] the target is T1, protein kinase A. The experiment in a line: Incubation of modified glass surface with protein kinase A under cover glass (FIG. 5, Example 26). The settings on record: protein kinase A 10 U/mL, 30 min at 25° C. Format: biochemical. Here is the method: as §1, with “4. The control peptide Leu-Arg-Arg-Ala-Ala-Leu-Gly-NH2, the peptide […] and the synthesis raw product […], each modified at the N-terminus with the dipeptide cysteinyl-β-alanine, were coupled to a maleinimido-functionalised glass surface by a Michael addition (Example 1).” for “4.”

BA1 = not defined here

Turning to “Cys-BA1-Leu-Arg-Arg-Ala-Ser-Leu-Gly-NH2 ({Cys-BA1}-LRRASLG-NH2; reading uncertain; also: printed as Cys-BA1-Leu-Arg-Arg-Ala-Ser-Leu-Gly-NH2) [compound 85]”, the “kinase-mediated incorporation of radioactivity into the substrate amino acid sequence” value with protein kinase A [1] (modified glass surfaces) is “clear time dependence”. In addition, in the assay with protein kinase A [1] (modified polypropylene surfaces), the “kinase-mediated phosphorylation signal on polypropylene” value is on record as “only non-specific binding of ATP or kinase to the peptides is measured”. Besides, in the assay with protein kinase A [2], the “signal intensity for the substrate amino acid sequence higher than that for the control product” value is listed as 800%.
